From patent publication US8084213, “Selection” (Domantis Limited)

Key:
Vk(E5)-scArc-HA = Vk(E5)-scArc-HA (Phage P22 / human Vk); assay: co-capture PCR; recovered also on beta-galactosidase; settings: tags: N-terminal Vk(E5) dAb fusion, C-terminal HA; chain copies: 2 scArc per operator (stated)
Description: The monoclonal high-affinity α-HA mAb 3F10 recognises the C-terminal HA tag, β-galactosidase and protein L can be expected to interact with the $V_\kappa$(E5) light chain domain, while BSA serves as the negative control. At the end of the incubation the coating solution is removed and the first blocking solution consisting of 150 µl of 10 ng/ml biotinylated BSA (Sigma) in PBS is added to the wells and incubated for 15 minutes. At the end of the incubation the wells are washed three times with 150 µl of PBS and blocked additionally for 30 min at room temperature with buffer C+.
25 µl S30 in vitro translation reactions (EcoPro T7, Novagen) are assembled according to the manufacturer's instructions and supplemented with 1.5 µl of 1.7 mM PCR-amplified template in 0.1 mg/ml RNA and 0.75 µl of 100 mM oxidized glutathione. Translation reactions are incubated at 23° C. for 4 hours and diluted with 150 µl of buffer C+ (10 mM Tris, 100 mM KCl, 0.05% Tween 20, 5 mM MgCl_2, 0.1 mM EDTA, 1% w/v BSA) before being applied in 50 µl aliquots to the pre-coated tubes cut from Strep Thermofast 96-well plates (Advanced Biotech) and allowed to bind for 30 min at room temperature. […]
The PCR amplification products are analysed by 1% agarose gel electrophoresis in TAE in the presence of ethidium bromide and imaged using GeneGeius Bio Imaging System (Syngene). […]

[1] = molecular target: T1, scArc-HA (pIE3 series, single-chain Arc repressor dimer) (Phage P22); assay: co-capture of DNA on anti-HA 3F10 surface, PCR detection; settings: tags: C-terminal HA; chain copies: 2 scArc per operator (stated)
T1 chain: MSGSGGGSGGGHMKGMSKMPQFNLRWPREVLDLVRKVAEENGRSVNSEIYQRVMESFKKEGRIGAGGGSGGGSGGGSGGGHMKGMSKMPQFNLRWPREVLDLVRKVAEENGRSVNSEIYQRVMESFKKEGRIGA
Description: In a typical solution expression experiment 1 μl of 1.7 nM template in 0.2 mg/ml tRNA is added to 25 μl EcoPro T7 in vitro translation mix Novagen), supplemented with 0.75 μl of 100 mM oxidized glutathione (Sigma), and incubated at 25° C. for four hours. During the translation reaction the streptavidin-coated PCR tubes, cut from Strep Thermofast 96-well plates (Abgene), are first incubated at room temperature for three hours with 50 μl of at least 40 nM biotinylated target protein in PBS. The coating buffer is thereafter removed and any remaining free biotin-binding sites are blocked with a 15 min pulse of 50 μg/ml biotinylated BSA in PBS. The pre-coated wells are thereafter three times washed with PBS and then filled with 100 μl of binding buffer C+ (100 mM KCl, 20 mM Tris, 5 mM MgCl_2, 0.05% Tween 20, 0.05 mM EDTA, 1% BSA). Upon completion of the translation reaction the products are diluted in Buffer C+ and applied to the pre-coated and blocked PCR tubes, allowed to bind for 30 min at room temperature and washed 4 times with 150 μl of Buffer C+. […]

B1: Arc operator, one copy, on linear genetic element (dsDNA)
DNA 1: ATGATAGAAGCACTCTACTAT
DNA 2: ATAGTAGAGTGCTTCTATCAT
B1: binds (Vk(E5)-scArc-HA); binds [1].
